Source: IntAct's records for PubMed 16616186

B1: Rho guanine nucleotide exchange factor 9 (Rattus norvegicus (Rat)), Q9QX73 (parent)
chain: MQWIRGGSGMLITGDSIVSAEAVWDHVTMANRGVAFKAGDVIKVLDASNKDWWWGQIDDEEGWFPASFVRLWVNQEDGVEEGPSDVQNGHLDPNSDCLCLGRPLQNRDQMRANVINEIMSTERHYIKHLKDICEGYLKQCRKRRDMFSDEQLKVIFGNIEDIYRFQMGFVRDLEKQYNNDDPHLSEIGPCFLEHQDGFWIYSEYCNNHLDACMELSKLMKDSRYQHFFEACRLLQQMIDIAIDGFLLTPVQKICKYPLQLAELLKYTAQDHSDYRYVAAALAVMRNVTQQINERKRRLENIDKIAQWQASVLDWEGDDILDRSSELIYTGEMAWIYQPYGRNQQRVFFLFDHQMVLCKKDLIRRDILYYKGRIDMDKYEVIDIEDGRDDDFNVSMKNAFKLHNKETEEVHLFFAKKLEEKIRWLRAFREERKMVQEDEKIGFEISENQKRQAAMTVRKASKQKGRVGEEENQSLELKRACEVLQRLWSPGKKS
partner: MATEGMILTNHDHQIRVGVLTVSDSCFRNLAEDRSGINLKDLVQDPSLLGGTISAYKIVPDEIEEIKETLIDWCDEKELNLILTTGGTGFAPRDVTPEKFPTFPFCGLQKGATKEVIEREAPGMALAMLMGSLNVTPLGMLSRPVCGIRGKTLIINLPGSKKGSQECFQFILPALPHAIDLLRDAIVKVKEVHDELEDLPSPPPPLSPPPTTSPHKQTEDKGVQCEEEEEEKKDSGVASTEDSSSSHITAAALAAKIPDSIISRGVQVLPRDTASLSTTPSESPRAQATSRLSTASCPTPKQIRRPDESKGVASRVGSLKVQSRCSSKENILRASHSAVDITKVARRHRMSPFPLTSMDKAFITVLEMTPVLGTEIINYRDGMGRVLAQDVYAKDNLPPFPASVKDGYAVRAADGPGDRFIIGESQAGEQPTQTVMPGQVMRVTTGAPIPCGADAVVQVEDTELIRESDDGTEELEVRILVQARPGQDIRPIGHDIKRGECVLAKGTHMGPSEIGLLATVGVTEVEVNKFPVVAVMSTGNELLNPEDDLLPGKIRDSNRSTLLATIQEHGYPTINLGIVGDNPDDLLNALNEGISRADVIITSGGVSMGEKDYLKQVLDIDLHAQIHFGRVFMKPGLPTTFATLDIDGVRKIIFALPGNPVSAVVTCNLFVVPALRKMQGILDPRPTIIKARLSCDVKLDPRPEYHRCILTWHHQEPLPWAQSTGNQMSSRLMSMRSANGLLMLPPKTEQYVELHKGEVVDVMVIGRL

Variants of: B1
Details: with geph_rat Gphn

effect of a mutation on the interaction | Variant
with no effect | MQWIRGGSGMLITGDSIVSAEAVWDHVTMANRGVAFKAGDVIKVLDASNKDWWWGQIDDEEGWFPASFVRLWVNQEDGVEEGPSDVQNGHLDPNSDCLCLGRPLQNAAQMRANVINAIMSTERHYIKHLKDICEGYLKQCRKRRDMFSDEQLKVIFGNIEDIYRFQMGFVRDLEKQYNNDDPHLSEIGPCFLEHQDGFWIYSEYCNNHLDACMELSKLMKDSRYQHFFEACRLLQQMIDIAIDGFLLTPVQKICKYPLQLAELLKYTAQDHSDYRYVAAALAVMRNVTQQINERKRRLENIDKIAQWQASVLDWEGDDILDRSSELIYTGEMAWIYQPYGRNQQRVFFLFDHQMVLCKKDLIRRDILYYKGRIDMDKYEVIDIEDGRDDDFNVSMKNAFKLHNKETEEVHLFFAKKLEEKIRWLRAFREERKMVQEDEKIGFEISENQKRQAAMTVRKASKQKGRVGEEENQSLELKRACEVLQRLWSPGKKS [R107A;D108A;E117A]
disrupting interaction | MQWIRGGSGMLITGDSIVSAEAVWDHVTMANRGVAFKAGDVIKVLDASNKDWWWGQIDDEEGWFPASFVRLWVNQEDGVEEGPSDVQNGHLDPNSDCLCLGRPLQNRDQMAANVINEIMSTERHYIKHLKDICEGYLKQCRKRRDMFSDEQLKVIFGNIEDIYRFQMGFVRDLEKQYNNDDPHLSEIGPCFLEHQDGFWIYSEYCNNHLDACMELSKLMKDSRYQHFFEACRLLQQMIDIAIDGFLLTPVQKICKYPLQLAELLKYTAQDHSDYRYVAAALAVMRNVTQQINERKRRLENIDKIAQWQASVLDWEGDDILDRSSELIYTGEMAWIYQPYGRNQQRVFFLFDHQMVLCKKDLIRRDILYYKGRIDMDKYEVIDIEDGRDDDFNVSMKNAFKLHNKETEEVHLFFAKKLEEKIRWLRAFREERKMVQEDEKIGFEISENQKRQAAMTVRKASKQKGRVGEEENQSLELKRACEVLQRLWSPGKKS [R111A]

Variants of: B1
Details: with geph_rat Gphn
Remark: another data set of the same source

effect of a mutation on the interaction | Variant
disrupting interaction strength | MQWIRGGSGMLITGDSIVSAEAVWDHVTMANRGVAFKAGDVIKVLDASNKDWWWGQIDDEEGWFPASFVRLWVNQEDGVEEGPSDVQNGHLDPNSDCLCLGRPLQNAAQMRANVINAIMSTERHYIKHLKDICEGYLKQCRKRRDMFSDEQLKVIFGNIEDIYRFQMGFVRDLEKQYNNDDPHLSEIGPCFLEHQDGFWIYSEYCNNHLDACMELSKLMKDSRYQHFFEACRLLQQMIDIAIDGFLLTPVQKICKYPLQLAELLKYTAQDHSDYRYVAAALAVMRNVTQQINERKRRLENIDKIAQWQASVLDWEGDDILDRSSELIYTGEMAWIYQPYGRNQQRVFFLFDHQMVLCKKDLIRRDILYYKGRIDMDKYEVIDIEDGRDDDFNVSMKNAFKLHNKETEEVHLFFAKKLEEKIRWLRAFREERKMVQEDEKIGFEISENQKRQAAMTVRKASKQKGRVGEEENQSLELKRACEVLQRLWSPGKKS [R107A;D108A;E117A]
